Ends that are not written are not given here.
How the values were obtained:
[1] = molecular target: T1, recombinant human integrin αvβ8 (human, UniProt P06756 31-992; P26012 43-684); experiment: cell-based or functional assay
[2] = molecular target: T1, recombinant human integrin αvβ8; experiment: Kinetic Exclusion Assay (KinExA), C6D4 as murine IgG2a
[3] = molecular target: T2, recombinant human integrin αvβ1 (human, UniProt P05556 21-728); experiment: ELISA on coated recombinant human integrin; 0 = no apparent binding
T2 construct: Bought; also called αvβ1 (R&D systems)
T2 sequence (chain, as listed by the source limits assumed, chain 1 of 2): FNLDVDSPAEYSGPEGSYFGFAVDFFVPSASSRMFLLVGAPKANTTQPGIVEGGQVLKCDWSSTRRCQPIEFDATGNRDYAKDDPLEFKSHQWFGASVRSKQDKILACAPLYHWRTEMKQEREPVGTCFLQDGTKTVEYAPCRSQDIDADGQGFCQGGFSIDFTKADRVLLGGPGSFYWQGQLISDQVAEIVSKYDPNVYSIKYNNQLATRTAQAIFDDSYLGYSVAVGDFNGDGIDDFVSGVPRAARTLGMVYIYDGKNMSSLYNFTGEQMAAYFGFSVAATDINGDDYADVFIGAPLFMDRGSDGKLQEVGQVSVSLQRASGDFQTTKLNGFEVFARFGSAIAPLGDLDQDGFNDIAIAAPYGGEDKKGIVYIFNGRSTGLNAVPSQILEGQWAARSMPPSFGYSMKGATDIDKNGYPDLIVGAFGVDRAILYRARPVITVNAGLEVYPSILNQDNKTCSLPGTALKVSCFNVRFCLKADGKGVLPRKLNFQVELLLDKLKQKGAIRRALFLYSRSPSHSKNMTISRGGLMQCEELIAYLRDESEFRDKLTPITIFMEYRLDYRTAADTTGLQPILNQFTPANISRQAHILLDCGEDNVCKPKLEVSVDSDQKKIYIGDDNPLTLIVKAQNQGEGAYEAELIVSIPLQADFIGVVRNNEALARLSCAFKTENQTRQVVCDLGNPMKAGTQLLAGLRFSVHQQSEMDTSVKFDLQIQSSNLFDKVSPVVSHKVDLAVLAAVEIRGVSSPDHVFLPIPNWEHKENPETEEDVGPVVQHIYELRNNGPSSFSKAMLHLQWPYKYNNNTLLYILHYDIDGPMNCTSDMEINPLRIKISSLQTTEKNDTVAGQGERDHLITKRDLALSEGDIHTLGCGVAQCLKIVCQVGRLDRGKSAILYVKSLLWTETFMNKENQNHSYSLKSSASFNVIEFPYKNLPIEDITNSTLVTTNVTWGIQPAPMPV
T2 sequence (P05556 21-728 limits assumed, chain 2 of 2): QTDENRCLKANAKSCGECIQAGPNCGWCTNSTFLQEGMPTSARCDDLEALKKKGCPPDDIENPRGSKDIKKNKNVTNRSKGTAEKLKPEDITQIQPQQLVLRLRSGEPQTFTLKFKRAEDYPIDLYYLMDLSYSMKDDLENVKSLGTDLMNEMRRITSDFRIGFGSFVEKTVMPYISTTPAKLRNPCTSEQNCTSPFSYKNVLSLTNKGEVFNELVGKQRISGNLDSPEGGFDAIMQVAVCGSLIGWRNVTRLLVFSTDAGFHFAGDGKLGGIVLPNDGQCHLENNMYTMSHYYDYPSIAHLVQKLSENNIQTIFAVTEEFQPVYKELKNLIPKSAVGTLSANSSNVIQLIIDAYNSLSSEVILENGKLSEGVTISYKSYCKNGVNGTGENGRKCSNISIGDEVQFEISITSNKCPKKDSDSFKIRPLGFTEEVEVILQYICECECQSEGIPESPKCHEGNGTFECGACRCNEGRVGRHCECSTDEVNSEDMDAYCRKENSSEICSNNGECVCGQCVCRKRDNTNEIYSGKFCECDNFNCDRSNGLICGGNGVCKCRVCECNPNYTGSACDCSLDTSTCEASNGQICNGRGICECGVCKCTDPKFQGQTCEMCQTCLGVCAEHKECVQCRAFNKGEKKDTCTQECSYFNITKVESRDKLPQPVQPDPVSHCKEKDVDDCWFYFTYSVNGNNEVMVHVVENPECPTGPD
Source text: (§1) Binding was quantified by intensity as 0-4 (0 representing no apparent binding; 4 representing robust binding) and results normalized to expression.

[4] = molecular target: T3, recombinant human integrin αvβ3 (human, UniProt P05106 27-718); experiment: as above
T3 construct: Bought; also called αvβ3 (R&D systems)
T3 sequence (chain, as listed by the source limits assumed, chain 1 of 2): as the sequence (chain, as listed by the source limits assumed, chain 1 of 2) above
T3 sequence (P05106 27-718 limits assumed, chain 2 of 2): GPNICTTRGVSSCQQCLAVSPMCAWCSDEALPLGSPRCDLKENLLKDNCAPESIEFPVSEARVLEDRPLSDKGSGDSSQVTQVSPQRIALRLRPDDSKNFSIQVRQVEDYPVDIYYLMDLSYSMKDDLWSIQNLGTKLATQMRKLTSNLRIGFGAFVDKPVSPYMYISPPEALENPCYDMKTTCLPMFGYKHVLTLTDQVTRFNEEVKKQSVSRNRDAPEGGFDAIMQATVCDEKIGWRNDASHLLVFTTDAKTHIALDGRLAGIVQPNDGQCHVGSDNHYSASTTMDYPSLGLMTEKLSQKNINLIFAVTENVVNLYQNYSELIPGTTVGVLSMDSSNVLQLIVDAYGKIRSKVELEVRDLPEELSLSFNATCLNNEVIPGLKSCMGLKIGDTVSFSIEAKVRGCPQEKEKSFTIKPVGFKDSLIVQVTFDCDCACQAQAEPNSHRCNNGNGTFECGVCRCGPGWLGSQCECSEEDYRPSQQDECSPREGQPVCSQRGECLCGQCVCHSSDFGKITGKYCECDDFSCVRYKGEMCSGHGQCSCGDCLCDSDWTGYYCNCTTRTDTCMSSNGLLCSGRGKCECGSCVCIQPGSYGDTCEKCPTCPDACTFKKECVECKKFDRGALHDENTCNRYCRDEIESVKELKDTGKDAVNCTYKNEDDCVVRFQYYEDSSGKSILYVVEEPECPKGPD
Source text: as §1

[5] = molecular target: T4, recombinant human integrin αvβ5 (human, UniProt P18084 24-719); experiment: as above
T4 construct: Bought; also called αvβ5 (R&D systems)
T4 sequence (chain, as listed by the source limits assumed, chain 1 of 2): as the sequence (chain, as listed by the source limits assumed, chain 1 of 2) above
T4 sequence (P18084 24-719 limits assumed, chain 2 of 2): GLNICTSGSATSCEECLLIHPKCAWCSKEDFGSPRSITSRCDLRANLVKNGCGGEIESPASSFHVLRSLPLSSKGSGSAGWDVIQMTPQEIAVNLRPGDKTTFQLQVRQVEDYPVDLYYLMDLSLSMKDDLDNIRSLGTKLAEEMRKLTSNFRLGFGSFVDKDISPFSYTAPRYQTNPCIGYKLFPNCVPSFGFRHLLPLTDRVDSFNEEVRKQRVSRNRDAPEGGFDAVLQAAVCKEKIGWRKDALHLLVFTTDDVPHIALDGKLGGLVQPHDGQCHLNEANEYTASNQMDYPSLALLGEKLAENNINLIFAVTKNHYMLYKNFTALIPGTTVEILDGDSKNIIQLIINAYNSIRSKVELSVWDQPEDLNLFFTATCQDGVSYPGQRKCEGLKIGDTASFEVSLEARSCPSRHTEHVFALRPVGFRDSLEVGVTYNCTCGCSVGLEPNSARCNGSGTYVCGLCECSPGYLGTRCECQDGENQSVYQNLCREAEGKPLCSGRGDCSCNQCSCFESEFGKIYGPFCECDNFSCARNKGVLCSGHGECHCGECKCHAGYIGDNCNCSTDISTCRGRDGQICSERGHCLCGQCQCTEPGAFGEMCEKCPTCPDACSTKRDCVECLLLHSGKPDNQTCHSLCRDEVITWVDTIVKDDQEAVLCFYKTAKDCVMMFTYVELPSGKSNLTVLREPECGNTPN
Source text: as §1

[6] = molecular target: T1, recombinant human integrin αvβ8; experiment: ELISA, Mab coated at 5 ug/ml, receptor 0.5 µg/ml in Mg buffer (1 mM Ca++ and 1 mM Mg++), detected with biotinylated anti-αv 8B8
Procedure: (§2) Binding in EDTA containing buffer defines cation-dependence because EDTA binds to Ca⁺⁺ and Mg′. Magnesium cation buffers contains 1 mM Ca⁺⁺ and 1 mM Mg⁺⁺. Here, the results are relative to anti-av, clone 11D12V2. All antibodies were coated on ELISA plates at 5 μg/ml.

[7] = molecular target: T1, recombinant human integrin αvβ8; experiment: ELISA: integrin coated on plate, supernatant of transfected 293 cells at 1/10 dilution, anti-mouse IgG-HRP; score normalized to expression;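 also: scale runs from 0 (no apparent binding) to 4 (robust binding), with scores adjusted for clone protein expression as determined by a murine IgG ELISA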
Source text: as §1

[8] = molecular target: T5, recombinant human integrin αvβ6 (human, UniProt P18564 22-707); experiment: ELISA, Mab coated at 5 ug/ml, αvβ6 receptor 0.5 µg/ml, detected with biotinylated anti-αv 8B8; percent of binding to anti-αv clone 11D12V2
T5 construct: also called αvβ6 (R&D systems); αvβ6 receptor
T5 sequence (chain, as listed by the source limits assumed, chain 1 of 2): as the sequence (chain, as listed by the source limits assumed, chain 1 of 2) above
T5 sequence (P18564 22-707 limits assumed, chain 2 of 2): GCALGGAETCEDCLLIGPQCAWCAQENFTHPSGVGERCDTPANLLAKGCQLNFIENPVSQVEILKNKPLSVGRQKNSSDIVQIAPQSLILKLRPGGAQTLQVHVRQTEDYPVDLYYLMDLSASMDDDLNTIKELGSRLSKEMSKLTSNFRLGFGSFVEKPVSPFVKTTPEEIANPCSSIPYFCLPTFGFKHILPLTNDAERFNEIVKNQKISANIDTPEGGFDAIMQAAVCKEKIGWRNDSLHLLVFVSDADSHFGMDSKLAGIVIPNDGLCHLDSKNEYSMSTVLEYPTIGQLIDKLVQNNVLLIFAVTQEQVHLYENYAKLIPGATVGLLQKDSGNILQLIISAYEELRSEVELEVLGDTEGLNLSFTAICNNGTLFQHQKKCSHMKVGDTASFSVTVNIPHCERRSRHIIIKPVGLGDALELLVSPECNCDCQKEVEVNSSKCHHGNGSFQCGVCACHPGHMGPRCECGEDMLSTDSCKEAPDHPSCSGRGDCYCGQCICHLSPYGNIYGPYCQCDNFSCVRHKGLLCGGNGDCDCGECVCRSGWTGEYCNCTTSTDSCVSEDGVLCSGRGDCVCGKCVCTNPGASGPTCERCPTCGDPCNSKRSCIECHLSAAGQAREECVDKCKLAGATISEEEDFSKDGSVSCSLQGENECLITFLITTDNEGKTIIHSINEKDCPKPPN
Procedure: as §2

[9] = molecular target: T1, recombinant human integrin αvβ8; experiment: blocking of adhesion (A590) of Cho cells expressing GARP/LTGFB1 to immobilized αvβ8; antibody concentration varied; unit taken from the axis log[Agonist], (ug/ml)
Source text: Here, Cho3.2.8.1 cells were transfected with GARP and LTGFB1.

[10] = molecular target: T6, truncated secreted form of αvβ8 fused in frame to alkaline phosphatase; experiment: ELISA: inhibition of binding of secreted αvβ8-alkaline phosphatase to coated TGF-β3 RGD peptide (1 µg/ml), OD405; fitted value in the table under the graph; unit from the axis and paragraph 229
T6 construct: Printed: truncated secreted form; also called alkaline phosphatase (AP) αvβ8 fusion protein; secreted αvβ8
T6 sequence (P06756 31-992, chain 1 of 2): as the sequence (chain, as listed by the source limits assumed, chain 1 of 2) above
T6 sequence (P26012 43-684, chain 2 of 2, further chain): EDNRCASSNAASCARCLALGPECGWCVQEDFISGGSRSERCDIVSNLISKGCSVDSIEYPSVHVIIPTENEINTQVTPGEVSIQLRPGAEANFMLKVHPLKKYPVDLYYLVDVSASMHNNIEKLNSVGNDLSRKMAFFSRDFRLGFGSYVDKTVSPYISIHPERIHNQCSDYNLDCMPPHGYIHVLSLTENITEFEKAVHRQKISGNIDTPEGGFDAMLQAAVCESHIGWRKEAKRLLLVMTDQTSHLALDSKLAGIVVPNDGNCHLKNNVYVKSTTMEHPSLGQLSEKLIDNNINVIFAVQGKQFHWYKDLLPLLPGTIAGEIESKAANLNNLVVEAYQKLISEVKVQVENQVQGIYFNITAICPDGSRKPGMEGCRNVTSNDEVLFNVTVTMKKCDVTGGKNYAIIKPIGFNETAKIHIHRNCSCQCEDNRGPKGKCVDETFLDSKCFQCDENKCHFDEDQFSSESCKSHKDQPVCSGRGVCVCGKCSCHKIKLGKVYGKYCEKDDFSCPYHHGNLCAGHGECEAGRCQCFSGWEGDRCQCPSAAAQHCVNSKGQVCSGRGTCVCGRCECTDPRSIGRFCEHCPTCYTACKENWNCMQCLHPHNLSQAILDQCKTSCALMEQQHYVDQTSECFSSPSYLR

[11] = molecular target: T1, recombinant human integrin αvβ8; experiment: scFv yeast display selection from random mutation libraries of clones 29 and 44
[12] = molecular target: T7, human integrin αvβ8 on CHO cells (human, UniProt P06756 31-1048; P26012 43-769); experiment: cell adhesion to coated peptide, crystal violet, signal above mock transfected cells (FIG. 25)
T7 construct: also called CHO cells expressing αvβ8; CHO lec cells stably transfected with αvβ8

T1 sequence (P06756 31-992 limits assumed, chain 1 of 2): as the sequence (chain, as listed by the source limits assumed, chain 1 of 2) above
T1 sequence (P26012 43-684 limits assumed, chain 2 of 2): as the sequence (P26012 43-684, chain 2 of 2, further chain) above

B1: C6D4 (composite antibody of C6 VH and D4 VK; murine IgG2a) (antibody, V domains shown)
VH: QIQLLQSGPELKKPGETVKISCKASGYTFTDYSMHWVKQAPGKGLKWVARINTETGEPTFADDFRGRFAVSLETSASTAYLQINNLKNEDTATYFCAIFYYGRDSWGQGTTLTVSS
VL: DIVMTQSPSSLAVSAGEKVTMSCKSSQSLLNSRTRKNYLAWYQQKPGQSPRLLIYWASTRESGVPDRFTGSGSGTDFTLTISSVQAEDLAVYYCKQSYNLLSFGAGTKLELKR
notes: also called C6D4 murine IgG2a; Mab C6D4
In the case of B1, the “EC50 of inhibition of TGF-β activation (TMLC luciferase reporter) of GARP/LTGFB1 Cho cells on immobilized αvβ8; unit from the axis” value [1] is reported as 1.04 µg/mL, the Kd [2] is reported as 0.832 nM and the binding result [3] is reported as “no binding (tested: supernatant at 1/10 dilution)”. The binding result [4] was “no binding (tested: supernatant at 1/10 dilution)”, the binding result [5] was “no binding (tested: supernatant at 1/10 dilution)” and the “Binding in Mg buffer relative to clone 68 (% compared with binding to anti-av clone 11D12V2)” value [6] was 103%. The “binding intensity score (0-4)” value [7] was 4 score 0-4, the binding result [8] was “no binding (tested: 5 ug/ml (coated Mab))” and the EC50 [9] was 1.2 µg/mL. For the same binder, the IC50 [10] was 0.494 µg/mL.

B2: clone C6 (scFv, yeast display) (scFv, V domains shown)
VH: QIQLLQSGPELKKPGETVKISCKASGYTFTDYSMHWVKQAPGKGLKWVARINTETGEPTFADDFRGRFAVSLETSASTAYLQINNLKNEDTATYFCAIFYYGRDSWGQGTALTVSS
VL: DIVMSQSPSSLAVSAGEKVTMSCKSSQSLLNSRTRKNYLAWYQQKPGQSPRLLIYWASTRESGVPDRFTGSGSGTDFTLTISSVQAEDLAVYYCKQSYNLLTFGAGTKLELKA
notes: scFv on yeast; also called A5=C6
B2: binds [11].

B3: TGF-β3 RGD multiple antigen presenting peptide DDHGRGDLGRLK (peptide)
peptide: DDHGRGDLGRLK
modifications: also: multiple antigen presenting peptide on 8-lysine core (branched)
notes: Branched peptide on a lysine core; also called L-TGF-b3 peptide; TGFb3 peptide
B3: binds [12].

Reference: patent US20210230279A1 (University of California, published 2021)
